Assay results published in patent publication US20120178908A1 (Novo Nordisk, published 2012).

T1: TLT-1 receptor on the surface of activated human platelets (human) (UniProt Q86YW5)
T1 sequence: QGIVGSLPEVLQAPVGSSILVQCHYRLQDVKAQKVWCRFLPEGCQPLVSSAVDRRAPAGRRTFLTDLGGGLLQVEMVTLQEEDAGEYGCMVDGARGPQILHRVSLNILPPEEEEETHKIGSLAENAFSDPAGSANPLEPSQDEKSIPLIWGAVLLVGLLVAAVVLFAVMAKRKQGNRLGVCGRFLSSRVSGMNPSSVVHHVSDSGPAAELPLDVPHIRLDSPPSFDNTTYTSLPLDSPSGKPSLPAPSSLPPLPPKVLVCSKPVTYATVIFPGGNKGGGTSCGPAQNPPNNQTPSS

T2: TLT-1 18-188 relipidated in 20:80 PS:PC vesicles (human) (UniProt Q86YW5)
T2 sequence: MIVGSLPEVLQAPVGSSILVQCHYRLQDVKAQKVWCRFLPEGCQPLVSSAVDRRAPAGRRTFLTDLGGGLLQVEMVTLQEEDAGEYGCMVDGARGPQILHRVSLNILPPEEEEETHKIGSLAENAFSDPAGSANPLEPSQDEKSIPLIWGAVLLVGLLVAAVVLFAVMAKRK

B1: Fab 0012-VH-CH1-L0-TF;LC-HPC4 (protein)
VH-CH1-TF, no linker: EVKLLESGGGLVQPGGSLKLSCAASGFDFSRYWMTWVRQAPGKGLEWIGEINPDSSTINYTPSLKDKFIISRDNAKNTLYLQMSEVRSEDTALYYCASGVFTSWGQGTLVTVSAASTKGPSVFPLAPCSRSTSESTAALGCLVKDYFPEPVTVSWNSGALTSGVHTFPAVLQSSGLYSLSSVVTVPSSSLGTKTYTCNVDHKPSNTKVDKRVESKSGTTNTVAAYNLTWKSTNFKTILEWEPKPVNQVYTVQISTKSGDWKSKCFYTTDTECDLTDEIVKDVKQTYLARVFSYPAGNVESTGSAGEPLYENSPEFTPYLETNLGQPTIQSFEQVGTKVNVTVEDERTLVRRNNTFLSLRDVFGKDLIYTLYYWKSSSSGKKTAKTNTNEFLIDVDKGENYCFSVQAVIPSRTVNRKSTDSPVECMGQEKGEFRE
light chain-HPC4: DVVMTQTPLSLPVSLGDQASISCRSSQSLVHRNGNTYFHWCLQKPGQSPKLLIYKVSNRFSGVPDRFSGSGSGTDFTLKISRVEAEDLGVYFCSQSTHVPYTFGGGTKLEIKRTVAAPSVFIFPPSDEQLKSGTASVVCLLNNFYPREAKVQWKVDNALQSGNSQESVTEQDSKDSTYSLSSTLTLSKADYEKHKVYACEVTHQGLSSPVTKSFNRGECEDQVDPRLIDGK
B2: Fab 0012-TF-L4b-VH-CH1;LC-HPC4 (protein)
TF-linker-VH-CH1: SGTTNTVAAYNLTWKSTNFKTILEWEPKPVNQVYTVQISTKSGDWKSKCFYTTDTECDLTDEIVKDVKQTYLARVFSYPAGNVESTGSAGEPLYENSPEFTPYLETNLGQPTIQSFEQVGTKVNVTVEDERTLVRRNNTFLSLRDVFGKDLIYTLYYWKSSSSGKKTAKTNTNEFLIDVDKGENYCFSVQAVIPSRTVNRKSTDSPVECMGQEKGEFREGGGGSGGGGSGGGGSGSEVKLLESGGGLVQPGGSLKLSCAASGFDFSRYWMTWVRQAPGKGLEWIGEINPDSSTINYTPSLKDKFIISRDNAKNTLYLQMSEVRSEDTALYYCASGVFTSWGQGTLVTVSAASTKGPSVFPLAPCSRSTSESTAALGCLVKDYFPEPVTVSWNSGALTSGVHTFPAVLQSSGLYSLSSVVTVPSSSLGTKTYTCNVDHKPSNTKVDKRVESK
light chain-HPC4: B1 light chain-HPC4
B3: Fab 0012-VH-CH1-L10-TF;LC-HPC4 (protein)
VH-CH1-linker-TF: EVKLLESGGGLVQPGGSLKLSCAASGFDFSRYWMTWVRQAPGKGLEWIGEINPDSSTINYTPSLKDKFIISRDNAKNTLYLQMSEVRSEDTALYYCASGVFTSWGQGTLVTVSAASTKGPSVFPLAPCSRSTSESTAALGCLVKDYFPEPVTVSWNSGALTSGVHTFPAVLQSSGLYSLSSVVTVPSSSLGTKTYTCNVDHKPSNTKVDKRVESKYGPPSPSSPAPEFLGGSGTTNTVAAYNLTWKSTNFKTILEWEPKPVNQVYTVQISTKSGDWKSKCFYTTDTECDLTDEIVKDVKQTYLARVFSYPAGNVESTGSAGEPLYENSPEFTPYLETNLGQPTIQSFEQVGTKVNVTVEDERTLVRRNNTFLSLRDVFGKDLIYTLYYWKSSSSGKKTAKTNTNEFLIDVDKGENYCFSVQAVIPSRTVNRKSTDSPVECMGQEKGEFRE
light chain-HPC4: B1 light chain-HPC4
B4: Fab 0012-LC-L1-TF;VH-CH1-HPC4 (protein)
light chain-linker-TF: DVVMTQTPLSLPVSLGDQASISCRSSQSLVHRNGNTYFHWCLQKPGQSPKLLIYKVSNRFSGVPDRFSGSGSGTDFTLKISRVEAEDLGVYFCSQSTHVPYTFGGGTKLEIKRTVAAPSVFIFPPSDEQLKSGTASVVCLLNNFYPREAKVQWKVDNALQSGNSQESVTEQDSKDSTYSLSSTLTLSKADYEKHKVYACEVTHQGLSSPVTKSFNRGECGSSGTTNTVAAYNLTWKSTNFKTILEWEPKPVNQVYTVQISTKSGDWKSKCFYTTDTECDLTDEIVKDVKQTYLARVFSYPAGNVESTGSAGEPLYENSPEFTPYLETNLGQPTIQSFEQVGTKVNVTVEDERTLVRRNNTFLSLRDVFGKDLIYTLYYWKSSSSGKKTAKTNTNEFLIDVDKGENYCFSVQAVIPSRTVNRKSTDSPVECMGQEKGEFRE
VH-CH1-HPC4: EVKLLESGGGLVQPGGSLKLSCAASGFDFSRYWMTWVRQAPGKGLEWIGEINPDSSTINYTPSLKDKFIISRDNAKNTLYLQMSEVRSEDTALYYCASGVFTSWGQGTLVTVSAASTKGPSVFPLAPCSRSTSESTAALGCLVKDYFPEPVTVSWNSGALTSGVHTFPAVLQSSGLYSLSSVVTVPSSSLGTKTYTCNVDHKPSNTKVDKRVESKEDQVDPRLIDGK
B5: Fab 0012-LC-L2-TF;VH-CH1-HPC4 (protein)
light chain-linker-TF: DVVMTQTPLSLPVSLGDQASISCRSSQSLVHRNGNTYFHWCLQKPGQSPKLLIYKVSNRFSGVPDRFSGSGSGTDFTLKISRVEAEDLGVYFCSQSTHVPYTFGGGTKLEIKRTVAAPSVFIFPPSDEQLKSGTASVVCLLNNFYPREAKVQWKVDNALQSGNSQESVTEQDSKDSTYSLSSTLTLSKADYEKHKVYACEVTHQGLSSPVTKSFNRGECGSGGGGSSGTTNTVAAYNLTWKSTNFKTILEWEPKPVNQVYTVQISTKSGDWKSKCFYTTDTECDLTDEIVKDVKQTYLARVFSYPAGNVESTGSAGEPLYENSPEFTPYLETNLGQPTIQSFEQVGTKVNVTVEDERTLVRRNNTFLSLRDVFGKDLIYTLYYWKSSSSGKKTAKTNTNEFLIDVDKGENYCFSVQAVIPSRTVNRKSTDSPVECMGQEKGEFRE
VH-CH1-HPC4: B4 VH-CH1-HPC4
B6: Fab 0012-LC-L3-TF;VH-CH1-HPC4 (protein)
light chain-linker-TF: DVVMTQTPLSLPVSLGDQASISCRSSQSLVHRNGNTYFHWCLQKPGQSPKLLIYKVSNRFSGVPDRFSGSGSGTDFTLKISRVEAEDLGVYFCSQSTHVPYTFGGGTKLEIKRTVAAPSVFIFPPSDEQLKSGTASVVCLLNNFYPREAKVQWKVDNALQSGNSQESVTEQDSKDSTYSLSSTLTLSKADYEKHKVYACEVTHQGLSSPVTKSFNRGECGSGGGGSGGGGSSGTTNTVAAYNLTWKSTNFKTILEWEPKPVNQVYTVQISTKSGDWKSKCFYTTDTECDLTDEIVKDVKQTYLARVFSYPAGNVESTGSAGEPLYENSPEFTPYLETNLGQPTIQSFEQVGTKVNVTVEDERTLVRRNNTFLSLRDVFGKDLIYTLYYWKSSSSGKKTAKTNTNEFLIDVDKGENYCFSVQAVIPSRTVNRKSTDSPVECMGQEKGEFRE
VH-CH1-HPC4: B4 VH-CH1-HPC4
B7: Fab 0012-LC-L7-TF;VH-CH1-HPC4 (protein)
light chain-linker-TF: DVVMTQTPLSLPVSLGDQASISCRSSQSLVHRNGNTYFHWCLQKPGQSPKLLIYKVSNRFSGVPDRFSGSGSGTDFTLKISRVEAEDLGVYFCSQSTHVPYTFGGGTKLEIKRTVAAPSVFIFPPSDEQLKSGTASVVCLLNNFYPREAKVQWKVDNALQSGNSQESVTEQDSKDSTYSLSSTLTLSKADYEKHKVYACEVTHQGLSSPVTKSFNRGECGGGGSGGGGSGGGGSGSGGGGSGGGGSGGGGSSGTTNTVAAYNLTWKSTNFKTILEWEPKPVNQVYTVQISTKSGDWKSKCFYTTDTECDLTDEIVKDVKQTYLARVFSYPAGNVESTGSAGEPLYENSPEFTPYLETNLGQPTIQSFEQVGTKVNVTVEDERTLVRRNNTFLSLRDVFGKDLIYTLYYWKSSSSGKKTAKTNTNEFLIDVDKGENYCFSVQAVIPSRTVNRKSTDSPVECMGQEKGEFRE
VH-CH1-HPC4: B4 VH-CH1-HPC4
B8: Fab 0012-LC-L6-TF;VH-CH1-HPC4 (protein)
light chain-linker-TF: DVVMTQTPLSLPVSLGDQASISCRSSQSLVHRNGNTYFHWCLQKPGQSPKLLIYKVSNRFSGVPDRFSGSGSGTDFTLKISRVEAEDLGVYFCSQSTHVPYTFGGGTKLEIKRTVAAPSVFIFPPSDEQLKSGTASVVCLLNNFYPREAKVQWKVDNALQSGNSQESVTEQDSKDSTYSLSSTLTLSKADYEKHKVYACEVTHQGLSSPVTKSFNRGECGGGGSGGGGSGSGGGGSGGGGSGGGGSSGTTNTVAAYNLTWKSTNFKTILEWEPKPVNQVYTVQISTKSGDWKSKCFYTTDTECDLTDEIVKDVKQTYLARVFSYPAGNVESTGSAGEPLYENSPEFTPYLETNLGQPTIQSFEQVGTKVNVTVEDERTLVRRNNTFLSLRDVFGKDLIYTLYYWKSSSSGKKTAKTNTNEFLIDVDKGENYCFSVQAVIPSRTVNRKSTDSPVECMGQEKGEFRE
VH-CH1-HPC4: B4 VH-CH1-HPC4

These binders were tested against T1, TLT-1 receptor on the surface of activated human platelets (human).

Row | FVII-mediated FXa generation % Activity activated plts (n 4) [%] | FVIIa-mediated FXa generation % Activity activated plts (n 4) [%] | FVII-mediated FXa generation % Activity activated plts (n 1) [%] | FVIIa-mediated FXa generation % Activity activated plts (n 2) [%] | FVII-mediated FXa generation % Activity activated plts (n 2) [%] | FVIIa-mediated FXa generation % Activity activated plts (n 1) [%] | Binder
1 | 71 | 80 | – | – | – | – | B1
2 | – | – | 5 | 5 | – | – | B2
3 | – | – | – | 81 | 78 | – | B3
4 | 111 | – | – | – | – | 125 | B4
5 | 96 | – | – | – | – | 112 | B5
6 | – | – | 98 | – | – | 97 | B6
7 | – | – | 92 | – | – | 95 | B7
8 | – | – | 95 | – | – | 91 | B8

These binders were tested against T2, TLT-1 18-188 relipidated in 20:80 PS:PC vesicles (human).

Row | FVII-mediated FXa generation % Activity lipidated TLT-1 [%] | FVIIa-mediated FXa generation % Activity lipidated TLT-1 [%] | Binder
9 | 98 | 106 | B1
10 | 0 | 0 | B2
11 | 87 | 93 | B3
12 | 97 | 101 | B4
13 | 96 | 106 | B5
14 | 98 | 105 | B6
15 | 95 | 98 | B7
16 | 94 | 101 | B8
